In article PMC11944484, “Metronidazole Activation by a Deeply Entangled Dimeric Malic Enzyme in Entamoeba histolytica” (Pathogens, 2025):

B1: Entamoeba histolytica malic enzyme (enzyme, UniProt Q9NH04 1-487, looked up)
chain: MAQLKADLSNLEECLPSTLSQEQRAVAKTQFYKELAEKVHKFYKGKIQIMPKCTLAGFNWFNAYYTPGVSRISTNIRDNNDSSLFYSLRGNFVGVVSDSTRVLGDGDVTPPGGLGVMEGKALLMKYLGGIDAVPICIDSKNKEGKNDPDAVIEFVQRIQHTFGAINLEDISQPNCYKILDVLRESCDIPVWHDDQQGTASVTLAGLLNALKLVKKDIHECRMVFIGAGSSNTTCLRLIVTAGADPKKIVMFDSKGSLHNGREDIKKDTRFYRKWEICETTNPSKFGSIAEACVGADVLISLSTPGPGVVKAEWIKSMGEKPIVFCCANPVPEIYPYEAKEAGAYIVATGRGDFPNQVNNSVGFPGILKGALIVRARKITDNMAIAASRALAEFAEKRGINPDNIIGTMDEPGIFPKEAADVAMQAIKDGVARVTDLTWQQVYDIAEHDIKEARESAQLLQDSKHIVDFPQETLNECLAYAINKVTGK
notes: Entamoeba histolytica malic enzyme, gene PCR-amplified from genomic DNA with primers from the ATG start codon to the stop codon; cloned into pQE30; Homodimer with two interlocked (knotted) protomers; also called EhME; rEhME; source: E. coli M15 (pQE30), purified (Ni-NTA, Superdex 200 gel exclusion chromatography)

Assays:
[1] = target: T1, EhME (Entamoeba histolytica malic enzyme; rEhME) (Entamoeba histolytica, UniProt Q9NH04); experiment: NADPH formation at […] nm, inhibition kinetics; type: biochemical
T1 construct: gene CL6EHI_044970; full-length ORF in pQE30, N-terminal His6 tag (cleavage not mentioned), expressed in E. coli M15; Ni-NTA and Superdex 200; apparent 53 kDa; entangled homodimer with composite active site
T1 sequence (Q9NH04 1-487): B1 chain

[2] = target: the molecule itself; experiment: SEC; gel filtration chromatography of purified EhME; conditions of the analysis not told apart from the purification step (Superdex 200, 10 mM Tris, 150 mM NaCl, 10 mM DTT, pH 8.0)
purified protein [3] = substrate: O=C(O)C[C@H](O)C(=O)O; experiment: purified protein; type: biochemical, Entamoeba histolytica; conditions: NADP+ at saturation, L-malate varied 5-15 mM, 5 mM MnCl2, 50 mM Tris-Cl pH 7.4, 30 °C, apparent Km
purified protein [4] = substrate: NC(=O)c1ccc[n+]([C@@H]2O[C@H](COP(=O)(O)OP(=O)(O)OC[C@H]3O[C@@H](n4cnc5c(N)ncnc54)[C@H](OP(=O)(O)O)[C@@H]3O)[C@@H](O)[C@H]2O)c1; experiment: purified protein; type: biochemical, Entamoeba histolytica; conditions: L-malate at saturation, NADP+ varied 0.1-0.5 mM, 5 mM MnCl2, 50 mM Tris-Cl pH 7.4, 30 °C, apparent Km, varied: cofactor

Molecule | Ki [1] [µM] | stoichiometry N [2] | Km (purified protein [3]) [mM] | kcat (purified protein [3]) [s⁻¹] | Km (purified protein [4]) [µM] | kcat (purified protein [4]) [s⁻¹]
Nc1ncnc2c1ncn2[C@@H]1O[C@H](COP(=O)(O)OP(=O)(O)OP(=O)(O)O)[C@@H](O)[C@H]1O [ATP] | 650 | – | – | – | – | –
B1 | – | 2 | 0.57 ± 0.08 | 41.7 | 46.67 ± 6.0 | 14.57
